# Test results from patent EP4725970A1 (Fortvita Biologics Inc., dated 2026).
# Residue numbers refer to the chain shown, from its start. Where two headings read alike, the source gives them in different places.
# B1: F2 (87) (F2-SP34.87-SC38497) (trispecific antibody, human IgG1, kappa, lambda, L234A L235A)
# heavy 1: not shown
# light 1: DIVMTQSPDSLAVSLGERATINCRASESVDSYGITFMNWYQQKPGQPPKLLIYAASNQGSGVPDRFSGSGSGTDFTLTISSLQAEDVAVYYCQQSKEVPWTFGQGTKLEIKRTVAAPSVFIFPPSDEQLKSGTASVVCLLNNFYPREAKVQWKVDNALQSGNSQESVTEQDSKDSTYSLSSTLTLSKADYEKHKVYACEVTHQGLSSPVTKSFNRGEC
# heavy 2: EVQLVESGGGLVQPGGSLKLSCAASGFTFNTYAMNWVRQASGKGLEWVGRIRSKYNNYATYYADSVKDRFTISRDDSKSTLYLQMNSLKTEDTAVYYCARHYNFGQSYVSWFAYWGQGTTVTVSSASTKGPSVFPLAPSSKSTSGGTAALGCLVKDYFPEPVTVSWNSGALTSGVHTFPAVLQSSGLYSLSSVVTVPSSSLGTQTYICNVNHKPSNTKVDKKVEPKSCDKTHTCPPCPAPEAAGGPSVFLFPPKPKDTLMISRTPEVTCVVVDVSHEDPEVKFNWYVDGVEVHNAKTKPREEQYNSTYRVVSVLTVLHQDWLNGKEYKCKVSNKALPAPIEKTISKAKGQPREPQVYTLPPSRDELTKNQVSLSCAVKGFYPSDIAVEWESNGQPENNYKTTPPVLDSDGSFFLVSKLTVDKSRWQQGNVFSCSVMHEALHNHYTQKSLSLSPGAGGGGSGGGGSDIQMTQSPSSLSASVGDRVTITCRASQSISRYLNWYQQKPGKAPKLLIYAASSLQSGVPSRFSGSGSGTDFTLTISSLQPEDFATYYCQQKYFDITFGCGTKVEIKGGGGSGGGGSGGGGSQLQLQESGPGLVKPSETLSLTCTVSGGSIVSSSYYWTWIRQPPGKCLEWIGSISIAGSTYYNPSLKSRVTISVDTSKNQFSLKLSSVTAADTAVYYCARDRGDQILDVWSQGTMVTVSS
# light 2: QAVVTQEPSLTVSPGGTVTLTCRSSTGAVTTSNYANWVQQKPGQAPRGLIGGTNKRAPGVPARFSGSLLGDKAALTLLGAQPEDEAEYYCALWYSNLWVFGQGTKLTVLGQPKAAPSVTLFPPSSEELQANKATLVCLISDFYPGAVTVAWKADSSPVKAGVETTTPSKQSNNKYAASSYLSLTPEQWKSHRSYSCQVTHEGSTVEKTVAPTECS
# B2: F2 (24) (F2-SP34.24-SC38497) (trispecific antibody, human IgG1, kappa, lambda, L234A L235A)
# heavy 1: not shown
# light 1: B1 light 1
# heavy 2: B1 heavy 2 with Y102G
# light 2: B1 light 2
# B3: B3 (87) (hz5E12_sp34.87_497_triFab) (trispecific antibody, human IgG1, kappa, lambda, L234A L235A)
# heavy 1: not shown
# light 1: B1 light 1
# heavy 2: not shown
# light 2: DIQMTQSPSSLSASVGDRVTITCRASQSISRYLNWYQDKPGKAPKLLIYAASSLQSGVPSRFSGSGSGTDFTLTISSLQPEDFATYYCQQKYFDITFGGGTKVEIKRTVAAPSVFIFPPSDECLKSGTASVVCLLNNFYPREAKVQWKVDNALQSGNSQESVTEQDSKDSTYSLSSTLTLSKADYEKHKVYACEVTHQGLSSPVTKSFNRGES
# light 3: B1 light 2 with Q40K
# notes: also called Exemplary antibody No. 2
# B4: B3b (87) (497(GLS)_sp34.87_5E12_triFab) (trispecific antibody, human IgG1, kappa, lambda, L234A L235A)
# heavy 1: not shown
# light 1: not shown
# heavy 2: not shown
# light 2: B1 light 1 with Q42D, Q128C, C218S
# light 3: B1 light 2 with Q40K
# notes: also called Exemplary antibody No. 4
# B5: Roche-GPRC5D/CD3 (bispecific antibody)
# light 1: DIVLTQSPALAVSPGQRATISCRASQSVSISGINLMNWYQQKPGQQPKLLIYHASILASGIPTRFSGSGSGTDFTLTIDPVQADDIATYYCQQTRESPLTFGSGTNLEIKRTVAAPSVFIFPPSDRKLKSGTASVVCLLNNFYPREAKVQWKVDNALQSGNSQESVTEQDSKDSTYSLSSTLTLSKADYEKHKVYACEVTHQGLSSPVTKSFNRGEC
# light 2: EVQLLESGGGLVQPGGSLRLSCAASGFTFSTYAMNWVRQAPGKGLEWVSRIRSKYNNYATYYADSVKGRFTISRDDSKNTLYLQMNSLRAEDTAVYYCVRHGNFGNSYVSWFAYWGQGTLVTVSSASVAAPSVFIFPPSDEQLKSGTASVVCLLNNFYPREAKVQWKVDNALQSGNSQESVTEQDSKDSTYSLSSTLTLSKADYEKHKVYACEVTHQGLSSPVTKSFNRGEC
# heavy 1: ELQLEQSGGGLVQPGGSLTLSCAASGFTFSKYAMAWVRQAPTKGLEWVASISTGGVNTYYRDSVKARFTISRDNAKNTQYLQMDSLRSEDTATYYCATHTGDYFDYWGQGVMVTVSSASTKGPSVFPLAPSSKSTSGGTAALGCLVEDYFPEPVTVSWNSGALTSGVHTFPAVLQSSGLYSLSSVVTVPSSSLGTQTYICNVNHKPSNTKVDEKVEPKSCDKTHTCPPCPAPEAAGGPSVFLFPPKPKDTLMISRTPEVTCVVVDVSHEDPEVKFNWYVDGVEVHNAKTKPREEQYNSTYRVVSVLTVLHQDWLNGKEYKCKVSNKALGAPIEKTISKAKGQPREPQVCTLPPSRDELTKNQVSLSCAVKGFYPSDIAVEWESNGQPENNYKTTPPVLDSDGSFFLVSKLTVDKSRWQQGNVFSCSVMHEALHNHYTQKSLSLSPGK
# heavy 2: not shown
# notes: GPRC5D/CD3 bispecific derived from WO 2019/154890 A1
# B6: Inno-G (hz5E12_sp34.24_Hel_triFab) (trispecific antibody, human IgG1, kappa, lambda, L234A L235A)
# heavy 1: not shown
# light 1: B1 light 1
# heavy 2: not shown
# light 2: DIQMTQSPSSLSASVGDRVTITCRASQSISSYLNWYQDKPGKAPKLLIYAASSLQSGVPSRFSGSGSGTDFTLTISSLQPEDFATYYCQQADLPAFAFGGGTKVEIKRTVAAPSVFIFPPSDECLKSGTASVVCLLNNFYPREAKVQWKVDNALQSGNSQESVTEQDSKDSTYSLSSTLTLSKADYEKHKVYACEVTHQGLSSPVTKSFNRGES
# light 3: B1 light 2 with Q40K
# How the values were obtained:
# [1] = biological target: T1, human CD3E&G-His/Free (human, UniProt P07766 23-126; P09693 23-116); assay: BLI (Octet), 1:1 fit
# T1 construct: Bought recombinant heterodimer; 'His/Free' as printed (one chain His-tagged); also called human CD3 E&G heterodimer
# T1 sequence (P07766 23-126, chain 1 of 2): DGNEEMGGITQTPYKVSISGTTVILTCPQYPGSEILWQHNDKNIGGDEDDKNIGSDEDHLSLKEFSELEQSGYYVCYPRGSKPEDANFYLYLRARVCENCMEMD
# T1 sequence (P09693 23-116, chain 2 of 2): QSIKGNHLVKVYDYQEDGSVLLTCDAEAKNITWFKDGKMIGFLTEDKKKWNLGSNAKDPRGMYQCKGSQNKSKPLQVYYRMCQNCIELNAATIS
# [2] = biological target: T2, cyno CD3E&G-His/Free (cynomolgus monkey, UniProt Q95LI5 22-117; Q95LI7 23-113); assay: BLI (Octet), 1:1 fit
# T2 construct: Bought recombinant heterodimer; also called monkey CD3 E&G
# T2 sequence (looked up) 1: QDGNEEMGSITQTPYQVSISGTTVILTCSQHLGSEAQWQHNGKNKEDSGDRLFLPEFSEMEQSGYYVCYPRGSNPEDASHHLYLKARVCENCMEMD
# T2 sequence (looked up) 2: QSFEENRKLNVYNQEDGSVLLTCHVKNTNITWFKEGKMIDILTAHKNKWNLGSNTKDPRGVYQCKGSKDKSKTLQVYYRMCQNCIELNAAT
# [3] = biological target: T3, Cyno BCMA-His (cynomolgus monkey, UniProt A0A2K5UD97 1-53); assay: BLI (Octet), 1:1 fit
# T3 construct: also called Cyno BCMA (ACRO BCA-C52H7); monkey BCMA
# T3 sequence (A0A2K5UD97 entry or part of it): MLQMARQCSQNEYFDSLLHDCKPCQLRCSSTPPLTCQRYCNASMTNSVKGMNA
# [4] = biological target: T4, human BCMA (full-length, on cells) (human, UniProt Q02223 1-184); assay: cell-based or functional assay
# T4 sequence: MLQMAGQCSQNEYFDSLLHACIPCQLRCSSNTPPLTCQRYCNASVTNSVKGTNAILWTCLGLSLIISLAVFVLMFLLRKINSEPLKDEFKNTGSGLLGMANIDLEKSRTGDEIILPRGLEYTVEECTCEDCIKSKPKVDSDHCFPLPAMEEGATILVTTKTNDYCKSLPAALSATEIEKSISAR
# [5] = biological target: T4, human BCMA (full-length, on cells); assay: cell-based or functional assay; remark: listed apart in the source
# [6] = biological target: T4, human BCMA (full-length, on cells); assay: cell-based or functional assay; remark: listed apart in the source
# [7] = biological target: T5, human GPRC5D (full-length, on cells) (human, UniProt Q9NZD1 1-345); assay: cell-based or functional assay
# T5 sequence (Q9NZD1 whole entry): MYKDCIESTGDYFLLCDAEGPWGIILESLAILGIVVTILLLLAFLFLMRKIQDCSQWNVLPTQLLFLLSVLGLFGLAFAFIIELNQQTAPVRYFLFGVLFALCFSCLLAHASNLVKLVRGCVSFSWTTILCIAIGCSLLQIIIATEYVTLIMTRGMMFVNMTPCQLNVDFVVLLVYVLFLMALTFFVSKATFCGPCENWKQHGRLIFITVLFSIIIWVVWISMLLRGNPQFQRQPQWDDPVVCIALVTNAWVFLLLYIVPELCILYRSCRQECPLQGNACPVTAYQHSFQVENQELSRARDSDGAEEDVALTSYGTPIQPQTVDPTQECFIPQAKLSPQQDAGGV
# [8] = biological target: T5, human GPRC5D (full-length, on cells); assay: cell-based or functional assay; remark: listed apart in the source
# [9] = biological target: T5, human GPRC5D (full-length, on cells); assay: cell-based or functional assay; remark: listed apart in the source
# [10] = biological target: T4, human BCMA (full-length, on cells); assay: flow cytometry, GS-CHO-hBCMA cells
# [11] = biological target: T4, human BCMA (full-length, on cells); assay: flow cytometry, GS-CHO-hBCMA cells; remark: listed apart in the source
# [12] = biological target: T5, human GPRC5D (full-length, on cells); assay: flow cytometry, GS-CHO-hGPRC5D cells
# [13] = biological target: T5, human GPRC5D (full-length, on cells); assay: flow cytometry, GS-CHO-hGPRC5D cells; remark: listed apart in the source
# [14] = biological target: T6, cynomolgus monkey BCMA (full-length, on cells) (cynomolgus monkey, UniProt A0A2K5UD97 1-183); assay: flow cytometry, GS-CHO-cynoBCMA cells
# T6 construct: whole, on cells; also called cynoBCMA; GS-CHO-cynoBCMA
# T6 sequence (A0A2K5UD97 entry or part of it): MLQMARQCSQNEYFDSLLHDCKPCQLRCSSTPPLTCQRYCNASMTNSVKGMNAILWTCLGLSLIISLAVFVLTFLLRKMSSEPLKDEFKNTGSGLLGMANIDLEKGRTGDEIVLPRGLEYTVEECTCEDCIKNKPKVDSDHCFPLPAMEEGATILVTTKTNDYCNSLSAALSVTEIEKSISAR
# [15] = biological target: T7, cynomolgus monkey GPRC5D (full-length, on cells) (cynomolgus monkey, UniProt A0A2K5W6I7 1-300); assay: flow cytometry, GS-CHO-cynoGPRC5D cells
# T7 construct: also called cynoGPRC5D; GS-CHO-cynoGPRC5D
# T7 sequence (A0A2K5W6I7 entry or part of it limits assumed, form in doubt): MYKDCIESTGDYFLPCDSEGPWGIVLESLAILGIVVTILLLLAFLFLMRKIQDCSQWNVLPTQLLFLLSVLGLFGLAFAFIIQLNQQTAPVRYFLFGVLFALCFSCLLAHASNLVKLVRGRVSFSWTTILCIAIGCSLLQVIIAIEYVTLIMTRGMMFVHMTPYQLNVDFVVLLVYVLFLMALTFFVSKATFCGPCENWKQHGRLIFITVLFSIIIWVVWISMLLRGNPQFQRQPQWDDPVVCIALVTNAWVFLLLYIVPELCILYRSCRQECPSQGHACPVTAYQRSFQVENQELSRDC
# [16] = biological target: T8, human CD3 (on Jurkat cells and human T cells) (human, UniProt P07766 23-207); assay: flow cytometry, Jurkat cells
# T8 construct: whole, on cells; the other chains of the complex on the cells are not described; also called CD3E
# T8 sequence (P07766 23-207): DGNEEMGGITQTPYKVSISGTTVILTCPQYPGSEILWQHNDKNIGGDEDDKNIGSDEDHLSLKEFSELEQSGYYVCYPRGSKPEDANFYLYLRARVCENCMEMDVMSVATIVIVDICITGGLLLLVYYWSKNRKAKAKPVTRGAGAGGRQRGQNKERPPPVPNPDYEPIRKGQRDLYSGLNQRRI
# [17] = biological target: T8, human CD3 (on Jurkat cells and human T …); assay: flow cytometry, human CD4 T cells
# [18] = biological target: T8, human CD3 (on Jurkat cells and human T …); assay: flow cytometry, human CD8 T cells
# [19] = biological target: T5, human GPRC5D (full-length, on cells); assay: cell-based or functional assay; remark: listed apart in the source
Binder,Kd [1] [nM],koff [1] [s⁻¹],kon [1] [M⁻¹ s⁻¹],Kd [2] [nM],koff [2] [s⁻¹],kon [2] [M⁻¹ s⁻¹],Kd [3] [nM],koff [3] [s⁻¹],kon [3] [M⁻¹ s⁻¹],EC50 of PBMC killing of H929 ko GPRC5D cells (LDH) [4] [nM],EC50 of PBMC killing of H929 ko GPRC5D cells (LDH) [5] [nM],"EC50 of PBMC killing of H929 ko GPRC5D cells, donor1 [6] [nM]",EC50 of PBMC killing of H929 ko BCMA cells (LDH) [7] [nM],EC50 of PBMC killing of H929 ko BCMA cells (LDH) [8] [nM],"EC50 of PBMC killing of H929 ko BCMA cells, donor1 [9] [nM]",EC50 [10] [nM],EC50 [11] [nM],EC50 [12] [nM],EC50 [13] [nM],EC50 [14] [nM],further results
B1,55,0.0131,239000,71.1,0.0124,175000,1.55,0.000961,621000,0.0677,0.428,0.0304,0.00739,0.0256,0.0342,120,211,98.6,94.1,117,EC50 [15]: 196 nM
B2,17.2,0.00765,445000,12.5,0.00597,476000,,,,,0.475,,,0.004,,,142,73.3,,83,EC50 [16]: 8.94 nM; EC50 [17]: 32.5 nM; EC50 [18]: 33.7 nM; EC50 [15]: 108 nM
B3,69.4,0.0151,218000,61.1,0.0131,214000,1.58,0.00122,773000,0.176,,0.346,0.025,,0.0663,37.7,,,132,,
B4,,,,,,,,,,,,0.14,,,0.879,,,,95.9,,
B5,,,,,,,,,,,,,,0.00419,0.00486,,,16,9.78,,EC50 [16]: 30.4 nM; EC50 [17]: 66.6 nM; EC50 [18]: 65.8 nM
B6,,,,,,,,,,,,,,,,,,,,,EC50 of PBMC killing of L363 cells [19]: 0.355 nM
